Patent publication US20240197738A1 (UNIVERSITY OF NORTH CAROLINA AT CHAPEL HILL, published 2024)

Legend:
CUL3 (wild type) = biological target: T1, CUL3 (wild type) (UniProt Q13618 1-768); assay: binding assay in cells; method not described
T1 construct: also called WT-CUL3; cullin 3

CUL3-E358Q = biological target: T2, CUL3-E358Q (UniProt Q13618 1-768); assay: binding assay in cells; method not described
T2 construct: also called E358Q-CUL3

EWSR1 (wild type) = biological target: T3, EWSR1 (wild type) (UniProt Q01844 1-656, limits assumed); assay: binding assay in cells; method not described, data not shown
T3 construct: also called EWSR1-WT; HA-EWSR1
T3 sequence (looked up): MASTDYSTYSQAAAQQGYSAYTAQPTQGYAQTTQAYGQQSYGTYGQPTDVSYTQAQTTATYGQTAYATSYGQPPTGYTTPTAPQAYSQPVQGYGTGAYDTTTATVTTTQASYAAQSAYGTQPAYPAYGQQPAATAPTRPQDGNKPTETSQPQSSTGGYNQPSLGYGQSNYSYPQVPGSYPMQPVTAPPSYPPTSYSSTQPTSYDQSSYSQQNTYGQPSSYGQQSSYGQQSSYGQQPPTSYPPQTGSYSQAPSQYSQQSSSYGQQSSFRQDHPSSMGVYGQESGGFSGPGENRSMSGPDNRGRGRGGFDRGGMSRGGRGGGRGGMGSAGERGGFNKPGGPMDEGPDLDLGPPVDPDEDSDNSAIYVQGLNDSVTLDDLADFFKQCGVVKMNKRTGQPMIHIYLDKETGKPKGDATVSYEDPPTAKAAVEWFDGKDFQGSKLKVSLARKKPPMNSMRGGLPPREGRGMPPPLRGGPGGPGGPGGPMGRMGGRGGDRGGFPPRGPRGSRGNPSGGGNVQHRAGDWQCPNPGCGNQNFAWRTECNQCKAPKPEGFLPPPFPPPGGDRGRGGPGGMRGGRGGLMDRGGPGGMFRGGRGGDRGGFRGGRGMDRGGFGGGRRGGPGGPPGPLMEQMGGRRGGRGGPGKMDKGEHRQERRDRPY

T2 sequence (Q13618 whole entry E358Q): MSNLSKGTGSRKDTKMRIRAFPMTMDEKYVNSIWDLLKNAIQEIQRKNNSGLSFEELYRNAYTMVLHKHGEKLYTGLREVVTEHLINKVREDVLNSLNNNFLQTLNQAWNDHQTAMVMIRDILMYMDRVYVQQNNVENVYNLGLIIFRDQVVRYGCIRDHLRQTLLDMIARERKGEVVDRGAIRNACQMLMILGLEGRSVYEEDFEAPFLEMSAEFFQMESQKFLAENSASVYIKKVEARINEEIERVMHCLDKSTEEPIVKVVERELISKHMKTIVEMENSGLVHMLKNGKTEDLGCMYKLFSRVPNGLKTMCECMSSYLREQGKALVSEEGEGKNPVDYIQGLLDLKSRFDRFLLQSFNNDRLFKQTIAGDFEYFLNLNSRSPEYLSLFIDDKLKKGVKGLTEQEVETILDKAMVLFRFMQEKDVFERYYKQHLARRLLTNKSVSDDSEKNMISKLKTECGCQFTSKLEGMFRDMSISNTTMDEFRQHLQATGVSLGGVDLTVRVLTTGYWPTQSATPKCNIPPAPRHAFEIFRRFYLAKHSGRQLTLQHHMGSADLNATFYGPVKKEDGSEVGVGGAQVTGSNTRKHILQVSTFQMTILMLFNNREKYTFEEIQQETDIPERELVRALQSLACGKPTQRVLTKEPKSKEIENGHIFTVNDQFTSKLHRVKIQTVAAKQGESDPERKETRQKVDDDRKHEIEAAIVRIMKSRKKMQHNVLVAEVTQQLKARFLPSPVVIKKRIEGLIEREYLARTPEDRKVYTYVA
T1 sequence (Q13618 whole entry): as the sequence (Q13618 whole entry E358Q) above, with Q358E counted along it

binding result (CUL3 (wild type)): binds | binding result (CUL3-E358Q): binds | binding result (EWSR1 (wild type)): no binding
B1: SPOP (other, human, UniProt O43791 1-374, looked up)
chain: MSRVPSPPPPAEMSSGPVAESWCYTQIKVVKFSYMWTINNFSFCREEMGEVIKSSTFSSGANDKLKWCLRVNPKGLDEESKDYLSLYLLLVSCPKSEVRAKFKFSILNAKGEETKAMESQRAYRFVQGKDWGFKKFIRRDFLLDEANGLLPDDKLTLFCEVSVVQDSVNISGQNTMNMVKVPECRLADELGGLWENSRFTDCCLCVAGQEFQAHKAILAARSPVFSAMFEHEMEESKKNRVEINDVEPEVFKEMMCFIYTGKAPNLDKMADDLLAAADKYALERLKVMCEDALCSNLSVENAAEILILADLHSADQLKTQAVDFINYHASDVLETSGWKSMVVSHPHLVAEAYRSLASAQCPFLGPPRKRLKQS
notes: Exogenous SPOP carried a GST, Flag or HA tag; endogenous SPOP was also used; also called GST-SPOP; Flag-SPOP
